Measurements: IntAct's records for PubMed 10633111

B1: Protein virB8 (Agrobacterium tumefaciens (strain C58 / ATCC 33970)), P17798 (parent)
chain: MKGSEYALLVARETLAEHYKEVEAFQTARAKSARRLSKVIAAVATIAVLGNVAQAFTIATMVPLIRLVPVYLWIRPDGTVDSEVSVSRLPATQEEAVVNASLWEYVRLRESYDADTAQYAYDLVSNFSAPMVRQNYQQFFNYPNPTSPQVILGKHGRLEVEHIASNDVTPGVQQIRYKRTLIVDGKMPMASTWTATVRYEKVTSLPGRLRLTNPGGLVVTSYQTSEDTVSNAGHSEP
partner: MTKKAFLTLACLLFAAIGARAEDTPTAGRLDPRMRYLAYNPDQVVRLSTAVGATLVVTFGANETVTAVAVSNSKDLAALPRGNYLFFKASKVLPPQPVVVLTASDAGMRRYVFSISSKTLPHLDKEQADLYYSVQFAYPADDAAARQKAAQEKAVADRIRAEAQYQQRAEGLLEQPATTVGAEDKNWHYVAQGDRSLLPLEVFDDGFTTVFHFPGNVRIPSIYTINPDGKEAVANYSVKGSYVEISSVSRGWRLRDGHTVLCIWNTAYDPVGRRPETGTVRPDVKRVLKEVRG
B2: Protein virB8 (Agrobacterium tumefaciens (strain C58 / ATCC 33970)), P17798 (parent)
chain: B1 chain
partner: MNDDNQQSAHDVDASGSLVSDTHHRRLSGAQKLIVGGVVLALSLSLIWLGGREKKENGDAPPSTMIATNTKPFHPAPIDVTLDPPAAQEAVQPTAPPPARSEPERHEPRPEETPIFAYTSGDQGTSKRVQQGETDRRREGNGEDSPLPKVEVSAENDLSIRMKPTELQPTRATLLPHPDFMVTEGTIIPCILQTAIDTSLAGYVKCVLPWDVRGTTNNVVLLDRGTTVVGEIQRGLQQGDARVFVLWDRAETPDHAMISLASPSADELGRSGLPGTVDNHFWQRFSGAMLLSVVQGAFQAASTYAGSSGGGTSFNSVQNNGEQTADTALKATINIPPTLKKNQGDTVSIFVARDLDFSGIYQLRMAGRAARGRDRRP

Variants of: B1
Conditions: with virb9_agrfc virB9, P17799

Variant | effect of a mutation on the interaction
MKGSEYALLVARETLAEHYKEVEAFQTARAKSARRLSKVIAAVATIAVLGNVAQAFTIATMVPLIRLVPVYLWIRPDGTVDSEVSVLRLPATQEEAVVNASLWEYVRLRESYDADTAQYAYDLVSNFSAPMVRQNYQQFFNYPNPTSPQVILGKHGRLEVEHIASNDVTPGVQQIRYKRTLIVDGKMPMASTWTATVRYEKVTSLPGRLRLTNPGGLVVTSYQTSEDTVSNAGHSEP [S87L] | disrupting interaction

Variants of: B2
Conditions: with virba_agrfc virB10, P17800

Variant | effect of a mutation on the interaction
MKGSEYALLVARETLAEHYKEVEAFQTARAKSARRLSKVIAAVATIAVLGNVAQAFTIATMVPLIRLVPVYLWIRPDGTVDSEVSVLRLPATQEEAVVNASLWEYVRLRESYDADTAQYAYDLVSNFSAPMVRQNYQQFFNYPNPTSPQVILGKHGRLEVEHIASNDVTPGVQQIRYKRTLIVDGKMPMASTWTATVRYEKVTSLPGRLRLTNPGGLVVTSYQTSEDTVSNAGHSEP [S87L] | decreasing interaction
